Assays:
Conditions in all cases: FMN input: 0 or 200 uM; Eterna round: R93 (includes R88 designs)
[1] = system: MS2 coat protein; experiment: apparent KD of MS2 coat protein, switch OFF state (with FMN for OFF switches, without FMN for ON switches); designed switch direction (-1 OFF switch, 1 ON switch): 1; higher = weaker reporter binding
Outline: (§1)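 On-chip transcription from Illumina sequencing clusters produced the designed RNA switches. These were titrated with SNAP-549-labelled MS2 coat protein (twofold steps, 0.7 or 1.5 nM to 3 µM) in 100 mM Tris-HCl pH 7.5, 80 mM KCl, 4 mM MgCl2, with or without constant ligand. The apparent KD given is the per-design median of normalised cluster binding-curve fits.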

[2] = system: MS2 coat protein; experiment: apparent KD of MS2 coat protein, switch ON state; designed switch direction (-1 OFF switch, 1 ON switch): 1; higher = weaker reporter binding
Outline: as §1

[3] = system: MS2 coat protein; experiment: apparent KD of MS2 coat protein, switch ON state; designed switch direction (-1 OFF switch, 1 ON switch): -1; higher = weaker reporter binding
Outline: as §1

[4] = system: MS2 coat protein; experiment: apparent KD of MS2 coat protein, switch OFF state (with FMN for OFF switches, without FMN for ON switches); designed switch direction (-1 OFF switch, 1 ON switch): -1; higher = weaker reporter binding
Outline: as §1

Sequence: AAAAGGGCGACACAGGAUAUGUUGACUCUAACAUGAGGAUCACCCAUGUGCGUUUAGGGUCGUGCGCAGAAGGGUGUAGCUCGGA [Orvele]
- apparent KD of MS2 coat protein [1]: 24.1 nM
- apparent KD of MS2 coat protein [2]: 12.9 nM

Sequence: AAAUAAAUGACUCAGGAUAUAUCAUAGAGUACAUGAGGAUCACCCAUGUUUUAAUAACAUGUUUGGUAGAAGGGAGUCAAUAAAU [LROPPY Same State 2 - v06_deltaG=1.99]
- apparent KD of MS2 coat protein [1]: 127 nM
- apparent KD of MS2 coat protein [2]: 25.8 nM

Sequence: CUUAGACAUGAGGAUCACCCAUGUCGAACAAACAAAGGAUAUGGGAGCCGAAGAAGGCUAUUAGAAGGUUGCAAAA [Isesinbe]
- apparent KD of MS2 coat protein [1]: 28.6 nM
- apparent KD of MS2 coat protein [2]: 26.4 nM

Sequence: CGCAGGAAGAGAGAGGAUAUCCAAAGGAAAACAUGAGGAUCACCCAUGUAAAAGGUAGGAAAUUGGGAGAAGGCUCAAGAGAGAG [salish99-ss2-100]
- apparent KD of MS2 coat protein [1]: 40.9 nM
- apparent KD of MS2 coat protein [2]: 34.3 nM

Sequence: AACAUACAUGAGGAUCACCCAUGUUCCGGCAGGUCAGGAUAUGUAUCGAAAGAGUUAUAAACAGAAGGGACAUAAA [JR_SS001_Sub010]
- apparent KD of MS2 coat protein [1]: 56.9 nM
- apparent KD of MS2 coat protein [2]: 32.4 nM

Sequence: GAUAAACAUGAGGAUCACCCAUGUAGAAAUAUGGGAGGAUAUACAAAGACGAAAGUCAAAGUAGAAGGCCUAAAAG [77%, Mat - Mod of Eli - With 1 more U's]
- apparent KD of MS2 coat protein [1]: 55.5 nM
- apparent KD of MS2 coat protein [2]: 24.4 nM

Sequence: AAAACACAUGAGGAUCACCCAUGUAAAAACAUGAGAGGAUAUGCAUGAAAAACAUGCUAUGCAGAAGGCUCAUGUG [SS1 - 1]
- apparent KD of MS2 coat protein [1]: 27.2 nM
- apparent KD of MS2 coat protein [2]: 20.9 nM

Sequence: GCACCACAUGAGGAUCACCCAUGUAAAACGUAGCAAGGAUAUGGGCACGGAUAAUUCCGAUCAGAAGGUGUAACGC [Gemaditera]
- apparent KD of MS2 coat protein [1]: 35.2 nM
- apparent KD of MS2 coat protein [2]: 105 nM

Sequence: CAUCAUGCGCCUAAGGAUAUGUCUCACAAGACAUGAGGAUCACCCAUGUAGAAUAAAUAAACGAUGCAGAAGGUGGAGUGCAUGC [Vetimaor]
- apparent KD of MS2 coat protein [1]: 361 nM
- apparent KD of MS2 coat protein [2]: 56.7 nM

Sequence: AGAAAUAAAAGCUAGGAUAUCCAAAAGAAAACAUGAGGAUCACCCAUGUGAAAGAAAAUAAAAUGGGAGAAGGAGCAAAAUAAGA [Topaz 51]
- apparent KD of MS2 coat protein [1]: 31 nM
- apparent KD of MS2 coat protein [2]: 17.5 nM

Sequence: AAAAGACAUGAGGAUCACCCAUGUAAAAACGUAGGAGGAUAUGUCUGGAAAACAUGCUGGACAGAAGGCCUGUGUC [SS1 - 29]
- apparent KD of MS2 coat protein [1]: 25.2 nM
- apparent KD of MS2 coat protein [2]: 17.6 nM

Sequence: AUAAAAUACUGUGAGGAUAUCCAUAAUAAAACAUGAGGAUCACCCAUGUGUAGAUAAUAAUAAUGGGAGAAGGCACAUAAUAAAU [SS2 M41]
- apparent KD of MS2 coat protein [1]: 27.6 nM
- apparent KD of MS2 coat protein [2]: 24.2 nM

Sequence: AUAAUAAUAAGGUAGGAUAUGCUAAAGUAAACAUGAGGAUCACCCAUGUAAAGAAAAAAACUCAUGUAGAAGGGCCAGAAAUAAA [moonwalk 4]
- apparent KD of MS2 coat protein [1]: 71.5 nM
- apparent KD of MS2 coat protein [2]: 80.1 nM

Sequence: AAGAUACAUGAGGAUCACCCAUGUCACCUCACACGAGGAUAUCUGUGCAGUACUCAGUACGGAGAAGGCGUGGAAA [Mat - Same State 1 - Hyphema mod - D98]
- apparent KD of MS2 coat protein [1]: 56.4 nM
- apparent KD of MS2 coat protein [2]: 25 nM

Sequence: AUAACAACGUAUGAGGAUAUCCUUAAUAAAACAUGAGGAUCACCCAUGUGAAUAAAAUAACAAUUGGAGAAGGCAUACGUACAAU [SS 2 M 52]
- apparent KD of MS2 coat protein [1]: 20.8 nM
- apparent KD of MS2 coat protein [2]: 15.4 nM

Sequence: AAUGAACAUGAGGAUCACCCAUGUUCUAACAGUUGAGGAUAUGUGGGUGAAAAUAGCACGGCAGAAGGCGAGUGUA [SameState1 Malc#20]
- apparent KD of MS2 coat protein [1]: 54.6 nM
- apparent KD of MS2 coat protein [2]: 119 nM

Sequence: AAUAUACAUGAGGAUCACCCAUGUUUUAAUAACUGAGGAUAUACGGGUGAAAACAGCAUAGUAGAAGGCAGAUAUA [SameState1 Malc#6]
- apparent KD of MS2 coat protein [1]: 102 nM
- apparent KD of MS2 coat protein [2]: 37.8 nM

Sequence: AAAAAACAUGAGGAUCACCCAUGUGCAAAAUUCGCAGGAUAUUUUUCUUUUAAAUGAGAGGGAGAAGGGUGUAAAA [Nob's Hobby 23 - Jieux - Same State 1]
- apparent KD of MS2 coat protein [1]: 22.1 nM
- apparent KD of MS2 coat protein [2]: 21.6 nM

Sequence: AAUACACAUGAGGAUCACCCAUGUAGAAAGAAGGCAGGAUAUCAGAUCCACAUGUGAUAAUGAGAAGGGCCAAUAA [SS 1 Tesla 9]
- apparent KD of MS2 coat protein [1]: 102 nM
- apparent KD of MS2 coat protein [2]: 21.1 nM

Sequence: AAGAAACAUGAGGAUCACCCAUGUAAGAUAAACACAGGAUAUGCGAAAAUAAAUAAAUAAGCAGAAGGGUGAAGAA [Mat - Same State 1 - Tesla mod - 66]
- apparent KD of MS2 coat protein [1]: 42.4 nM
- apparent KD of MS2 coat protein [2]: 14.8 nM

Sequence: AAAAAACAUGAGGAUCACCCAUGUCAAAAGACGUGAGGAUAUGUACAGACUUCGGUCUGUACAGAAGGCACGAAAA [SS1 - 1037]
- apparent KD of MS2 coat protein [1]: 20.1 nM
- apparent KD of MS2 coat protein [2]: 12.9 nM

Sequence: GAAAAACAUGAGGAUCACCCAUGUAGUAAUAUGGAAGGAUAUACAAAGACGUAAGUCAAAGUAGAAGGUCUAAAAG [Garnet 100]
- apparent KD of MS2 coat protein [1]: 24.7 nM
- apparent KD of MS2 coat protein [2]: 21.6 nM

Sequence: AACAAUCUAUCUGAGGAUAUGUGUCGAAAGACAUGAGGAUCACCCAUGUAAAAACAUGGAAAGAUACAGAAGGCAGAUAGAUUGA [SS2: 1157]
- apparent KD of MS2 coat protein [1]: 107 nM
- apparent KD of MS2 coat protein [2]: 28.4 nM

Sequence: GAAAAACAUGAGGAUCACCCAUGUGACAACAUGGGAGGAUAUACGUGGACGAUAGUCAAAGUAGAAGGCCUAAAAG [Garnet 64]
- apparent KD of MS2 coat protein [1]: 18.4 nM
- apparent KD of MS2 coat protein [2]: 71.7 nM

Sequence: AAAAAACAUGAGGAUCACCCAUGUGAAAAAAACGCAGGAUAUCCCUUUUUUAAAUGGGAGGGAGAAGGGUGAAAAA [Nob's Hobby 14 - Jieux - Same State 1]
- apparent KD of MS2 coat protein [1]: 45.9 nM
- apparent KD of MS2 coat protein [2]: 36.3 nM

Sequence: AAUUGACAUGAGGAUCACCCAUGUAGGAUUAUGGGAGGAUAUACAAAGACGAGAGUCAGAGUAGAAGGCCUAGGAA [salish99-ss1-146]
- apparent KD of MS2 coat protein [1]: 82.1 nM
- apparent KD of MS2 coat protein [2]: 25 nM

Sequence: AAUAUACAUGAGGAUCACCCAUGUUAGGUGGGACUAGGAUAUCAAAAUACAUAAUGAACAUGAGAAGGAGUAUCAA [JR_SS001_Sub403]
- apparent KD of MS2 coat protein [1]: 249 nM
- apparent KD of MS2 coat protein [2]: 140 nM

Sequence: AAAUAAAUGACUAAGGAUAUAUCGGAGAAAACAUGAGGAUCACCCAUGUAAUAAUAAAAAGGGUGAUAGAAGGUAGUCAACAAAC [Mod 1 of Pariah 4 by Hyphema in Round 1]
- apparent KD of MS2 coat protein [1]: 63.6 nM
- apparent KD of MS2 coat protein [2]: 37.3 nM

Sequence: AAAAGACAUGAGGAUCACCCAUGUAAAGACAUAGGAGGAUAUGUCGUGAAAAAAGACUUGGCAGAAGGCCUUUGUC [SS1 - 46]
- apparent KD of MS2 coat protein [1]: 25.6 nM
- apparent KD of MS2 coat protein [2]: 21 nM

Sequence: CGUGAACAUGAGGAUCACCCAUGUGAAAAACAUAGAGGAUAUGUCACAUGAGUGUAAAAGACAGAAGGCUAUCGUG [Mod 1 of Round 1 starryjess' Mod pf Nando]
- apparent KD of MS2 coat protein [1]: 152 nM
- apparent KD of MS2 coat protein [2]: 98 nM

Sequence: AGAAGACAUGAGGAUCACCCAUGUGGGAAUAUGGGAGGAUAUACAAAGACGAGAGUCAGAGUAGAAGGCCUAGGUA [salish99-ss1-109]
- apparent KD of MS2 coat protein [1]: 99.5 nM
- apparent KD of MS2 coat protein [2]: 32.5 nM

Sequence: AAAAUACAUGAGGAUCACCCAUGUCCGACAAAUCAAGGAUAUGAUAGCCAAACCAGGCUGUUAGAAGGUGAAAGAA [Esesrien]
- apparent KD of MS2 coat protein [1]: 151 nM
- apparent KD of MS2 coat protein [2]: 260 nM

Sequence: GAACCACAUGAGGAUCACCCAUGUCUAAGAAAUUAAGGAUAUGCACAAAAGGAAAUAACUGCAGAAGGUAAACGAA [Redo]
- apparent KD of MS2 coat protein [1]: 33.1 nM
- apparent KD of MS2 coat protein [2]: 25.1 nM

Sequence: UAACUACAUGAGGAUCACCCAUGUCAAAUAAAUCGAGGAUAUGGGACGCAAAACGUCUGACCAGAAGGCGAAACAA [Maquriceri]
- apparent KD of MS2 coat protein [1]: 132 nM
- apparent KD of MS2 coat protein [2]: 27.3 nM

Sequence: AAAAAGUCAGGAUAUCUGGAUAGGAAAAAGAAAACCUAUCCAGAGAAGGGACAUGAGGAUCACCCAUGUAAAAA [JL cataway mod 1]
- apparent KD of MS2 coat protein [3]: 49.2 nM
- apparent KD of MS2 coat protein [4]: 42.4 nM

Sequence: GAAGAACAUGAGGAUCACCCAUGUCAGGAUAUGCAGAAGGGAAUAAUAACCUCUGGAAGCAGAAGGGACAAGAA [Ex 1 May 48]
- apparent KD of MS2 coat protein [3]: 33.5 nM
- apparent KD of MS2 coat protein [4]: 59.4 nM

Sequence: AACAGUACAGGAUAUACAUGAGGAUCACCCAUGUCACAAUUAAGCAGCGUAACACAAAGUAGAAGGGUAAUGGA [Ruby 17]
- apparent KD of MS2 coat protein [3]: 46.4 nM
- apparent KD of MS2 coat protein [4]: 31.1 nM

Sequence: GAAAAGUCAGGAUAUGCAGAAAAAAAAACGAAAAAAAAACUGCAGAAGGGACAUGAGGAUCACCCAUGUUAAAA [Mat - Exclusion 4 - Mayanna - D127]
- apparent KD of MS2 coat protein [3]: 41.5 nM
- apparent KD of MS2 coat protein [4]: 31.2 nM

Sequence: AAGGUACGAGGAUAUACAUAGAUACAGACACAUGUAGAUGUACAUGAGGAUCACCCAUGUAGAAGGCGUAUAUA [AJ 20]
- apparent KD of MS2 coat protein [3]: 60.7 nM
- apparent KD of MS2 coat protein [4]: 97.5 nM

Sequence: AAAACACAUGAGGAUCACCCAUGUGAGGAUAUGCAUAAAAAAAAAAAAAAAAAAAAAUGCAGAAGGCACAUAAA [jn_camden]
- apparent KD of MS2 coat protein [3]: 21 nM
- apparent KD of MS2 coat protein [4]: 41.3 nM

Sequence: GAAAACAGAGGAUAUACAUGAGGAUCACCCAUGUAAAAAUGUAGAAGGCUGAAAGAAAGAAGAAGGAAAGAAAA [Meechl Ex3 R2 m2]
- apparent KD of MS2 coat protein [3]: 24.2 nM
- apparent KD of MS2 coat protein [4]: 28.3 nM

Sequence: AGGGAACAUGAGGAUCACCCAUGUGAGGAUAUGCUAUGGAAAUAAAAAAUAAAACAUAGCAGAAGGCAUAAAAA [Mat - Exclusion 1 - Eli mod - D39]
- apparent KD of MS2 coat protein [3]: 47.6 nM
- apparent KD of MS2 coat protein [4]: 46.1 nM

Sequence: AACUGGCUAGGAUAUACGUAAUAAAAUAUCAGUGAGAUUUCACAUGAGGAUCACCCAUGUAGAAGGAGCAAAAU [Esxereorar]
- apparent KD of MS2 coat protein [3]: 24.5 nM
- apparent KD of MS2 coat protein [4]: 16.6 nM

From the supplement of paper PMC9170038
